Results from article PMC5770551.

Target: CbpAC (pneumococcal surface protein C variant) of nonencapsulated Streptococcus pneumoniae strain MNZ41 (Streptococcus pneumoniae (nonencapsulated strain MNZ41))
Assay: flow cytometry on cells; 10^7 CFU viable pneumococci incubated with 200 µl of 10 µg/ml nonspecific mouse IgA for 1 h on ice; detected with biotinylated goat anti-mouse IgA and streptavidin-Alexa Fluor 488; percent positive cells gated above background

nonspecific mouse IgA (antibody)
percent positive cells (MNZ41 bacteria expressing CbpAC): 58.6%
